Measured values published in patent EP2877200B1.

Tests used:
[1] = target: human Type 1 IGF receptor (human) (UniProt P08069); test: competitive displacement of 125I-Tyr31 IGF-I from IGF-1R
[2] = target: human Type 1 IGF receptor (human) (UniProt P08069); test: competitive displacement of 125I-Tyr31 IGF-I from IGF-1R (different receptor preparation from Tables 1A-1C)

Substance	Kd [1] [nM]	Kd [2] [nM]
[Lys^B28, Pro^B29]-insulin (ligand; other documents disagree on this pair)	8.39	3.86
α-D-mannopyranoside-O^β-Thr^B30-[His^A4, His^A8, Gly^A21]-insulin (ligand)	41.8	–
